From article PMC10798159 come the findings set out here.

The target in test [1] is human serum albumin. The experiment in a line: SPR; fit kinetic; antibody as scFv; antigen as not_told; on the surface: target; avidity monovalent.
Test [2] deals with macaque serum albumin. The test is described as above.
For test [3], the target named is rat serum albumin. The test is described as above.
Test [4] deals with human serum albumin. Put plainly: ELISA; fit steady_state; antibody as scFv; antigen as not_told; on the surface: target; avidity monovalent.
Test [5] concerns the target macaque serum albumin. Described as above.

Take SON-1210: the Kd turned out to be 500 nM in test [1] (pH 5.8); 800 nM in test [1] (pH 7.4); 900 nM in test [2] (pH 5.8); 2300 ± 400 nM in test [2] (pH 7.4); 5.4 ± 1.92 µM in test [3] (pH 5.8); 12.9 ± 5.1 µM in test [3] (pH 7.4). The Kd was found to be 80 ± 10 nM in test [4] (pH 6.2), 60 ± 30 nM in test [4] (pH 7.4), 600 ± 300 nM in test [5] (pH 6.2) and 400 ± 200 nM in test [5] (pH 7.4).
